Data from patent US20230312682A1 (published 2023).

Columns and labels:
[1] = target: T1, CD47 on the surfaces of cells (human, UniProt Q08722 19-323); experiment: cell-based or functional assay
[2] = target: T1, CD47 on the surfaces of cells; experiment: cell-based or functional assay; remark: listed apart in the source
[3] = target: T1, CD47 on the surfaces of cells; experiment: flow cytometry on Daudi cells, FITC anti-human Fc
Protocol: The binding capacity of the prepared SIRP-Fc-IgG1 mutants to CD47 on the surfaces of Daudi cells (human lymphoma cells) was determined by flow cytometry. Experimental procedure: After being counted, Daudi cells were inoculated into a 96-well round-bottom culture plate at 2E5 cells/150 μL by using a PBS solution containing 1% bovine serum albumin (BSA). To the 96-well plate described above were added 50 μL of SIRPα-Fc fusion protein mutants serially diluted with the PBS solution. The plate was incubated at room temperature for 1 h and then centrifuged, and the supernatant was discarded. Then the cells were washed twice with PBS. An FITC-labeled goat anti-human (Fc-Specific) antibody (1:1000 diluted with PBS containing 1% BSA) was added. The plate was incubated at room temperature for half an hour and centrifuged, and the cells were washed and then tested for mean fluorescence intensity (MFI) in the FITC channel on a flow cytometer (CytoFLEX Cytometer System, purchased from Beckman Coulter). The experimental data were processed using the software provided with the flow cytometer, and the mean fluorescence intensity was calculated. The data were analyzed and plotted in GraphPad Prism 6, and EC₅₀ was calculated.

CD47-His [4] = target: T2, CD47-His (human, UniProt Q08722 19-139); experiment: ELISA, plate coated with CD47-His, anti-human Fc-HRP detection
T2 construct: also called Human CD47-His; SIRPα-Fc fusion protein's ligand CD47-His
Protocol: Method: Human CD47-His prepared in Example 1.3 was diluted to 100 ng/mL with a sodium carbonate buffer, and then the dilution was added to a microplate at 100 μL per well. The plate was incubated at room temperature for 2 h and washed with PBST. The plate was blocked by adding PBST containing 1% bovine serum albumin (BSA) to each well and incubated at room temperature for 1 h. The plate was washed twice with PBST, and serially diluted antibodies or fusion proteins were added. The plate was incubated for half an hour and washed twice with PBST. A properly diluted HRP-labeled goat anti-human (Fc-Specific) secondary antibody was added, and the plate was incubated for half an hour. After the plate was washed, a color developing solution was added for color development, and the color development was terminated with a stop solution. The OD450 was read using on a microplate reader. The data were analyzed in GraphPad Prism 6 and plotted, and EC₅₀ was calculated.

CD47-His [5] = target: T2, CD47-His; experiment: SPR (Biacore 8K), captured on Protein A chip, CD47-His as analyte
Protocol: Biacore is a method commonly used for molecular interaction analysis based on the principle of surface plasmon resonance (SPR for short). Here, Biacore was used to determine the affinity of the SIRP mutants described above and anti-CD47 antibodies for the extracellular end of CD47. Experimental method and procedure: The SIRP mutant or anti-CD47 antibodies were diluted to a concentration of 1 μg/mL with HBS-EP⁺ buffer (pH 7.4, purchased from Cytiva, catalog No. BR-1006-69). […] A 6 M solution of guanidine hydrochloride was used as a regeneration buffer. Sensor Chip Protein A (purchased from Cytiva, catalog No. 29-1275-55) was used to capture antibody on Biacore 8K (purchased from GE Healthcare). Then CD47-His was used as an analyte and allowed to flow over the chip, and an association-dissociation curve was obtained. After the chip was regenerated with the regeneration buffer, another cycle was carried out. The data were analyzed using Biacore 8K Evaluation Software.

B1: anti-CD47B-Hu-IgG1 (antibody, V domains shown)
VH: QVQLVQSGAEVKKPGASVKVSCKASGYTFANHVIHWVRQAPGQGLEWMGYIYPYNDGTKYNEKFKDRVTLTSDKSTSTVYMELSSLRSEDTAVYYCARGGYYTYDDWGQGTLVTVSS
VL: DVVMTQSPLSLPVTLGQPASISCRSSQSLVHSNGKTYLHWYQQRPGQSPRLLIYKVSNRFSGVPDRFSGSGSGTDFTLKISRVEAEDVGVYYCSQSTHVPYTFGQGTKVEIKR
notes: Human IgG1 / kappa
- ADCP of Daudi cells by human macrophages, EC50 [1]: 19 pM
- ADCP of Daudi cells by human macrophages, Top (highest degree of ADCP by curve fitting) [1]: 12.5
- ADCC on Daudi cells with human PBMCs, EC50 [2]: 197 pM
- ADCC on Daudi cells with human PBMCs, Top (highest degree of ADCC by curve fitting) [2]: 29
- EC50 [3]: 189 pM
- height of top plateau [3]: 3070 MFI
- EC50 (CD47-His [4]): 55.8 pM
- height of top plateau (CD47-His [4]): 0.795 OD450
- Kd (CD47-His [5]): 104 pM
- koff (CD47-His [5]): 0.00012 s⁻¹
- kon (CD47-His [5]): 1.16e+06 M⁻¹ s⁻¹
